Here are results for one protein from ChEMBL document CHEMBL2074072, “Transport of glutathione, glucuronate, and sulfate conjugates by the MRP gene-encoded conjugate export pump” (Cancer Res, 1996).

Substrate in this series: N[C@@H](CCC(=O)N[C@H](CSc1ccc([N+](=O)[O-])cc1[N+](=O)[O-])C(=O)NCC(=O)O)C(=O)O
The series can be described thus: TP_TRANSPORTER: uptake in membrane vesicle from MRP1-expressing HeLa cells. It counts as functional, cell membranes.

B1: Multidrug resistance-associated protein 1 (Homo sapiens) (protein)
chain: MALRGFCSADGSDPLWDWNVTWNTSNPDFTKCFQNTVLVWVPCFYLWACFPFYFLYLSRHDRGYIQMTPLNKTKTALGFLLWIVCWADLFYSFWERSRGIFLAPVFLVSPTLLGITMLLATFLIQLERRKGVQSSGIMLTFWLVALVCALAILRSKIMTALKEDAQVDLFRDITFYVYFSLLLIQLVLSCFSDRSPLFSETIHDPNPCPESSASFLSRITFWWITGLIVRGYRQPLEGSDLWSLNKEDTSEQVVPVLVKNWKKECAKTRKQPVKVVYSSKDPAQPKESSKVDANEEVEALIVKSPQKEWNPSLFKVLYKTFGPYFLMSFFFKAIHDLMMFSGPQILKLLIKFVNDTKAPDWQGYFYTVLLFVTACLQTLVLHQYFHICFVSGMRIKTAVIGAVYRKALVITNSARKSSTVGEIVNLMSVDAQRFMDLATYINMIWSAPLQVILALYLLWLNLGPSVLAGVAVMVLMVPVNAVMAMKTKTYQVAHMKSKDNRIKLMNEILNGIKVLKLYAWELAFKDKVLAIRQEELKVLKKSAYLSAVGTFTWVCTPFLVALCTFAVYVTIDENNILDAQTAFVSLALFNILRFPLNILPMVISSIVQASVSLKRLRIFLSHEELEPDSIERRPVKDGGGTNSITVRNATFTWARSDPPTLNGITFSIPEGALVAVVGQVGCGKSSLLSALLAEMDKVEGHVAIKGSVAYVPQQAWIQNDSLRENILFGCQLEEPYYRSVIQACALLPDLEILPSGDRTEIGEKGVNLSGGQKQRVSLARAVYSNADIYLFDDPLSAVDAHVGKHIFENVIGPKGMLKNKTRILVTHSMSYLPQVDVIIVMSGGKISEMGSYQELLARDGAFAEFLRTYASTEQEQDAEENGVTGVSGPGKEAKQMENGMLVTDSAGKQLQRQLSSSSSYSGDISRHHNSTAELQKAEAKKEETWKLMEADKAQTGQVKLSVYWDYMKAIGLFISFLSIFLFMCNHVSALASNYWLSLWTDDPIVNGTQEHTKVRLSVYGALGISQGIAVFGYSMAVSIGGILASRCLHVDLLHSILRSPMSFFERTPSGNLVNRFSKELDTVDSMIPEVIKMFMGSLFNVIGACIVILLATPIAAIIIPPLGLIYFFVQRFYVASSRQLKRLESVSRSPVYSHFNETLLGVSVIRAFEEQERFIHQSDLKVDENQKAYYPSIVANRWLAVRLECVGNCIVLFAALFAVISRHSLSAGLVGLSVSYSLQVTTYLNWLVRMSSEMETNIVAVERLKEYSETEKEAPWQIQETAPPSSWPQVGRVEFRNYCLRYREDLDFVLRHINVTINGGEKVGIVGRTGAGKSSLTLGLFRINESAEGEIIIDGINIAKIGLHDLRFKITIIPQDPVLFSGSLRMNLDPFSQYSDEEVWTSLELAHLKDFVSALPDKLDHECAEGGENLSVGQRQLVCLARALLRKTKILVLDEATAAVDLETDDLIQSTIRTQFEDCTVLTIAHRLNTIMDYTRVIVLDKGEIQEYGAPSDLLQQRGLFYSMAKDAGLV
With B1, the Km was 3.6 µM.
